In assay [1] the target is BAP-tagged Histophilus somni Transferrin binding protein B (aa 21-643) (Histophilus somni strain H191). In words: BLI.
For assay [2], the target named is caprine transferrin (goat). In words: ELISA.
Assay [3] has as its target ovine transferrin (sheep). In words: ELISA.

Turning to ovine transferrin (ligand), the fold lower affinity than for bovine transferrin in assay [1] was found to be 3 fold.
The same measure, in the same setting: with caprine transferrin (ligand) the figure was 15.7 fold.
With “Histophilus somni Transferrin binding protein A 2 (receptor)”, the absorbance signal relative to that with bovine transferrin in assay [2] and in assay [3] was 0.25 fold in each case.

The record behind these values is article doi:10.1101/730739.
